The target of assay [1] is human CD3 on cells (Jurkat cells, primary human T cells) (human) (UniProt P07766). The assay is described as follows: flow cytometry, 10 nM antibody on Jurkat cells; no-antibody background 2075.61.
The target of assay [2] is hK2 on target cells (VCaP, LNCaP/hK2 and other hK2 positive tumor cells) (human, UniProt P20151 19-261). Put plainly: cell-based or functional assay.
Sequence of hK2 on target cells (VCaP, LNCaP/hK2 and other hK2 positive tumor cells) (P20151 19-261): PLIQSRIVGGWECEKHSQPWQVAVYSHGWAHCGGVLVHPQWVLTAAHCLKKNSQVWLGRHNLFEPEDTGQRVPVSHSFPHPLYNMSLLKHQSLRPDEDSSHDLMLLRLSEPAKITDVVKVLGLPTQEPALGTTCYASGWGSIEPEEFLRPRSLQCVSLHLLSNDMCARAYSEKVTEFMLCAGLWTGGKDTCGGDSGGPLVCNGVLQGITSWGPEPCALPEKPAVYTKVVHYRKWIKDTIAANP

Sequence of human CD3 on cells (Jurkat cells, primary human T cells) (human) (P07766 23-207 limits assumed): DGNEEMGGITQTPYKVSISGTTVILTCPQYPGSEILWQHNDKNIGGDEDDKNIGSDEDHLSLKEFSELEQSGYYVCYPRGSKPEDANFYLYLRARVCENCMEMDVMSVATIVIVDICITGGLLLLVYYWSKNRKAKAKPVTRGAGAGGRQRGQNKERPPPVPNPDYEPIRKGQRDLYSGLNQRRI

As for UCHT1 (antibody), the MFI (mean fluorescence index) (arbitrary units) in assay [1] came out at 89200.

B1: CAR20 (KL2B359_LH) (other)
chain: EIVLTQSPATLSLSPGERATLSCRASESVEYFGTSLMHWYQQKPGQPPRLLIYAASNVESGIPARFSGSGSGTDFTLTISSVEPEDFAVYFCQQTRKVPYTFGGGTKVEIKGGSEGKSSGSGSESKSTGGSQVQLQESGPGLVKPSQTLSLTCTVSGNSITSDYAWNWIRQFPGKRLEWIGYISYSGSTTYNPSLKSRVTISRDTSKNQFSLKLSSVTAADTAVYYCATGYYYGSGFWGQGTLVTVSSTSTPAPRPPTPAPTIASQPLSLRPEACRPAAGGAVHTRGLDFACDIYIWAPLAGTCGVLLLSLVITLYCKRGRKKLLYIFKQPFMRPVQTTQEEDGCSCRFPEEEEGGCELRVKFSRSADAPAYKQGQNQLYNELNLGRREEYDVLDKRRGRDPEMGGKPRRKNPQEGLYNELQKDKMAEAYSEIGMKGERRRGKGHDGLYQGLSTATKDTYDALHMQALPPR
Consider B1, for which the “tumor cell growth inhibition (TGI) of VCaP cells, IncuCyte killing assay, 96 hours, E:T 1:1 or 0.5:1” value in assay [2] is about 100%.

For the origin of these results see patent US20260152559A1 (Janssen / Centocor, published 2026).
